The text below walks through data of paper PMC8975821, “TOX4 facilitates promoter-proximal pausing and C-terminal domain dephosphorylation of RNA polymerase II in human cells” (Communications Biology, 2022).

In this test the target is T1, 3× Flag-tagged TOX4 (UniProt O94842 1-621).
T1 construct: TOX4, cDNA cloned into pFASTBAC.1; Also used as the parent (on) of the region row from the co-IP with TOX4 fragments, whose own constructs are not described; also called 3× Flag-TOX4; source: High Five cells infected with baculovirus, purified (anti-Flag M2 magnetic beads, eluted with 3× Flag peptide); also purified from High Five cells as the TOX4-PP1α complex
T1 sequence (looked up): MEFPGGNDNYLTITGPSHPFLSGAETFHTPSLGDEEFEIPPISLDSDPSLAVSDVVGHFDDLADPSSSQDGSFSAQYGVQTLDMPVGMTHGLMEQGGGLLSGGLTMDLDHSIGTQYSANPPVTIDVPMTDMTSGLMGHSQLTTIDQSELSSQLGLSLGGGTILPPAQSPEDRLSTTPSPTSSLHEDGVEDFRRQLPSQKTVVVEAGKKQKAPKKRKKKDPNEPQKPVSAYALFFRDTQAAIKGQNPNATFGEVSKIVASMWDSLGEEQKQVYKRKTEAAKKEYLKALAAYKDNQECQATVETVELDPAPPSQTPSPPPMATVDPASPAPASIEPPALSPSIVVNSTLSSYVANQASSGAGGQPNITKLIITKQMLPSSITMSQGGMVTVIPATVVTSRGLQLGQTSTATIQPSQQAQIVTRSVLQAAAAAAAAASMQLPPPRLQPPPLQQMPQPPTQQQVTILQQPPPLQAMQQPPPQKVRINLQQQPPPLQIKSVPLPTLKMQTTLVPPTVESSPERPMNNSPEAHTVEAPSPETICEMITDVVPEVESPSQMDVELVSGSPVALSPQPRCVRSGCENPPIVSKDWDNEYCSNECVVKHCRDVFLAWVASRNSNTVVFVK
Briefly: co-IP; in vitro binding assay of individually purified TOX4 and PP1α, β or γ; PP1 co-immunoprecipitated with TOX4; Western blot, quantified by ImageJ. To be noted: both partners purified. Background: A western blot detects proteins with antibodies after separation by electrophoresis.

B1: His-tagged PP1β (enzyme, UniProt P62140 1-327, looked up)
chain: MADGELNVDSLITRLLEVRGCRPGKIVQMTEAEVRGLCIKSREIFLSQPILLELEAPLKICGDIHGQYTDLLRLFEYGGFPPEANYLFLGDYVDRGKQSLETICLLLAYKIKYPENFFLLRGNHECASINRIYGFYDECKRRFNIKLWKTFTDCFNCLPIAAIVDEKIFCCHGGLSPDLQSMEQIRRIMRPTDVPDTGLLCDLLWSDPDKDVQGWGENDRGVSFTFGADVVSKFLNRHDLDLICRAHQVVEDGYEFFAKRQLVTLFSAPNYCGEFDNAGGMMSVDETLMCSFQILKPSEKKAKYQYGGLNSGRPVTPPRTANPPKKR
notes: PP1β, catalytic subunit of protein phosphatase 1 beta; cDNA cloned into pFASTBAC.1; also called His-PP1β; source: High Five cells infected with baculovirus, purified (HisPur Ni-NTA magnetic beads, imidazole elution)
Consider B1, for which the binding result is “binds”.
